Read-outs that look alike come from different tables or passages of the source.
Key:
[1] = molecular target: human SIRPα-isoform 2-his protein (human); experiment: indirect ELISA on coated human SIRPα-isoform 2-his, OD(450-630); curve not visible in the scan
[2] = molecular target: T1, full length human SIRPα on cell membranes (HEK293-SIRPα cells; 293F-SIRPα cells) (human, UniProt P78324 31-504); experiment: cell based binding FACS on 293F cells expressing human SIRPα, MFI; curve not visible in the scan
T1 construct: whole, on cells; also called cell surface human SIRPα; cell surface SIRPα
T1 sequence (P78324 31-504): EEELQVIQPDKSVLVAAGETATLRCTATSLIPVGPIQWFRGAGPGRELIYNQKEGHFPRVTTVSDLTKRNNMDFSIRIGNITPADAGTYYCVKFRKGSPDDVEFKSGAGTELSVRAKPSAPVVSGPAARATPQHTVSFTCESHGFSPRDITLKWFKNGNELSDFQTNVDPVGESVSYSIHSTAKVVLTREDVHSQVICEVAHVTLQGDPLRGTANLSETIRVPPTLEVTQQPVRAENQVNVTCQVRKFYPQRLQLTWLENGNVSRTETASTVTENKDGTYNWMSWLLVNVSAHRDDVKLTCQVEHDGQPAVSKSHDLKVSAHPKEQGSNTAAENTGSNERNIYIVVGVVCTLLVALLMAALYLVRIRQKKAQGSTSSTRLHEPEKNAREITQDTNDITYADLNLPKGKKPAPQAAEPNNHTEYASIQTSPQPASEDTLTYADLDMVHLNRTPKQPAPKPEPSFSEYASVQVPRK

[3] = molecular target: T2, full length human SIRPβ on cell membranes (HEK293-SIRPβ cells; 293F cells expressing human SIRPβ) (human, UniProt O00241 30-398); experiment: cell based binding FACS on HEK293-SIRPβ cells, MFI
T2 construct: whole, on cells; also called cell surface human SIRPβ
T2 sequence (O00241 30-398): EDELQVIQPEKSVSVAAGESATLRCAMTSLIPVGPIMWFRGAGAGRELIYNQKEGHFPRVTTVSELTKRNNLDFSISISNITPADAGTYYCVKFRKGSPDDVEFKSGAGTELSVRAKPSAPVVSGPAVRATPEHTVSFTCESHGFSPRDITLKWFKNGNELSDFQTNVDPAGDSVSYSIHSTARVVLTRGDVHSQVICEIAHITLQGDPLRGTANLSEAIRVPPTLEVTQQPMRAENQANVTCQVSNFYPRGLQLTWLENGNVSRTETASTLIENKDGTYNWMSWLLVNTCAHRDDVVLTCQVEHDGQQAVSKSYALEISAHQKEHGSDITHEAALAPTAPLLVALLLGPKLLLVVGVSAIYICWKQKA

human SIRPα-his protein [4] = molecular target: T3, human SIRPα-his protein (human, UniProt P78324 31-370); experiment: SPR (Biacore T200); antibody captured on Protein A chip, human SIRPα-his flowed from 200 nM; 1:1 Langmuir fit
T3 sequence (P78324 other isoform, or with tags, fused parts or gaps limits assumed): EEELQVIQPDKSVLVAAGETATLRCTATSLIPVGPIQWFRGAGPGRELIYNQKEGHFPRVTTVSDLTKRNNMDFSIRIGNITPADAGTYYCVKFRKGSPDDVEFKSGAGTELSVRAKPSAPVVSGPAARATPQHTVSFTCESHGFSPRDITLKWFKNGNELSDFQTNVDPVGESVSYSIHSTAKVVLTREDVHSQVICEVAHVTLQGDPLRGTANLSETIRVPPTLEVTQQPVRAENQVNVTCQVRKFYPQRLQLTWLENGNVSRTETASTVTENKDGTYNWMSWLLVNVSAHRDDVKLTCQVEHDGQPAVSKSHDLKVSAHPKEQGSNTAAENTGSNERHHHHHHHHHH

[5] = molecular target: T1, full length human SIRPα on cell …; experiment: cell based binding FACS on HEK293-SIRPα cells, MFI
[6] = molecular target: T1, full length human SIRPα on cell …; experiment: cell based binding FACS on 293F cells expressing human SIRPα, MFI; curve not visible in the scan; remark: listed apart in the source
[7] = molecular target: T1, full length human SIRPα on cell …; experiment: cell based blocking FACS on 293F-SIRPα cells; blocked ligand: human CD47 protein (CD47-Fc), MFI; curve not visible in the scan
human SIRPα-his protein [8] = molecular target: T3, human SIRPα-his protein; experiment: competitive ELISA on coated human SIRPα-his; blocked ligand: biotin-labeled human CD47-his, OD(450-630); curve not assignable in the scan
[9] = molecular target: T4, human SIRPα-V8-his protein (human, UniProt P78324 31-370, limits assumed); experiment: indirect ELISA on coated human SIRPα-V8-his, OD(450-630); curve flat at the baseline (see non_binding)
T4 sequence (P78324 other isoform, or with tags, fused parts or gaps limits assumed): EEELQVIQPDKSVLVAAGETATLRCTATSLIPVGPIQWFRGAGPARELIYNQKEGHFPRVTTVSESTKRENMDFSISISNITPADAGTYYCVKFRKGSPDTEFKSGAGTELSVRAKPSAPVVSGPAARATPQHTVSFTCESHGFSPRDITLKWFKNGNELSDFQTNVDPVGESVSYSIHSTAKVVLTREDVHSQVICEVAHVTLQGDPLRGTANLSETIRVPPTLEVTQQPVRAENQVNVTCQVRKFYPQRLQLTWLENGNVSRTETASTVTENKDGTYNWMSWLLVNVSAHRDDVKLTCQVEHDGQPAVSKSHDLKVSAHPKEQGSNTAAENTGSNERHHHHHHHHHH

[10] = molecular target: T1, full length human SIRPα on cell …; experiment: cell based blocking FACS on 293F-SIRPα cells; blocked ligand: human CD47 protein (CD47-Fc), MFI; curve not visible in the scan; remark: listed apart in the source
[11] = molecular target: T5, human SIRPα protein (soluble, used on 293F-CD47 cells) (human, UniProt P78324 31-370, limits assumed); experiment: cell based blocking FACS on 293F-CD47 cells; soluble human SIRPα protein blocked from binding cell surface human CD47, MFI; curve not visible in the scan
T5 sequence (P78324 31-370 limits assumed): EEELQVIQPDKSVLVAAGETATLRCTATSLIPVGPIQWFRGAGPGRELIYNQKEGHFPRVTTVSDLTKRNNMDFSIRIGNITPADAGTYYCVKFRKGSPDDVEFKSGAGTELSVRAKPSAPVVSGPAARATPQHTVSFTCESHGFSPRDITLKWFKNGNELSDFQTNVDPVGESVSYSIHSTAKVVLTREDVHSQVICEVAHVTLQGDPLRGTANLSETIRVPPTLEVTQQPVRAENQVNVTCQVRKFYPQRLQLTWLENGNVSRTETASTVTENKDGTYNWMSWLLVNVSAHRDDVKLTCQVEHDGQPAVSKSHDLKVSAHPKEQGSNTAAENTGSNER

[12] = molecular target: T6, cynomolgus SIRPα-his protein (cynomolgus); experiment: indirect ELISA on coated cynomolgus SIRPα-his, OD(450-630); curve not visible in the scan
T6 construct: also called Cyno SIRPα-his; monkey SIRPα
T6 chain: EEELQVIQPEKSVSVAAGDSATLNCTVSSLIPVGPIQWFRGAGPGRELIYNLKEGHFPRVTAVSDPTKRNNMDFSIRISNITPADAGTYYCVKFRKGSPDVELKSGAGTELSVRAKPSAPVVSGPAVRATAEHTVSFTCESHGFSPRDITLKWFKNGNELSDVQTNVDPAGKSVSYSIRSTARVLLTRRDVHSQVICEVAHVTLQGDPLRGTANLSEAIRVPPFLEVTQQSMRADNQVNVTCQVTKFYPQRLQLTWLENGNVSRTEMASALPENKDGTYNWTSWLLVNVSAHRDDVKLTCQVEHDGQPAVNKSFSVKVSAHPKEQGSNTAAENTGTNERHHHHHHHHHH

[13] = molecular target: T2, full length human SIRPβ on cell …; experiment: cell based binding FACS on 293F cells expressing human SIRPβ, MFI; curve not visible in the scan
[14] = molecular target: T6, cynomolgus SIRPα-his protein; experiment: indirect ELISA on coated cynomolgus SIRPα-his, OD(450-630); curve not visible in the scan
[15] = molecular target: human SIRPα-isoform 2-his protein (human); experiment: indirect ELISA on coated human SIRPα-isoform 2-his, OD(450-630); curve flat at the baseline (see non_binding)
[16] = molecular target: human SIRPα-isoform 2-his protein (human); experiment: indirect ELISA on coated human SIRPα-isoform 2-his, OD(450-630); curve not visible in the scan; remark: listed apart in the source
[17] = molecular target: T2, full length human SIRPβ on cell …; experiment: cell based binding FACS on 293F cells expressing human SIRPβ, MFI; curve not visible in the scan; remark: listed apart in the source
[18] = molecular target: T4, human SIRPα-V8-his protein; experiment: indirect ELISA on coated human SIRPα-V8-his, OD(450-630); curve not visible in the scan
[19] = molecular target: T5, human SIRPα protein (soluble, used on …); experiment: cell based blocking FACS on 293F-CD47 cells; soluble human SIRPα protein blocked from binding cell surface human CD47, MFI; curve not visible in the scan; remark: listed apart in the source
human SIRPβ-his protein = human SIRPβ-his protein (human, UniProt O00241 30-371); experiment: SPR (Biacore T200); antibody captured on Protein A chip, human SIRPβ-his flowed from 200 nM; 1:1 Langmuir fit
human SIRPβ-his protein, sequence (O00241 other isoform, or with tags, fused parts or gaps limits assumed): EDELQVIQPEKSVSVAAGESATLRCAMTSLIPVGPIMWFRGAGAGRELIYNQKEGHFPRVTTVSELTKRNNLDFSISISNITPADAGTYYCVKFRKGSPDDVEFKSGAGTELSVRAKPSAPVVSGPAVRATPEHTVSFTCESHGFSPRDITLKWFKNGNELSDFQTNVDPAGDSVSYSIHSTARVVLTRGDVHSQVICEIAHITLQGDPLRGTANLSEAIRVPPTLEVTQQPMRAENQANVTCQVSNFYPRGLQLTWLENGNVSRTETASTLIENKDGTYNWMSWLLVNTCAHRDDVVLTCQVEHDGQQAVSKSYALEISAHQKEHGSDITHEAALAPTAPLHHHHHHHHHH

[20] = molecular target: T7, recombinant human SIRPα-Fc protein (human, biotin-labeled (sites not given)); experiment: capture ELISA, antibody captured on anti-mouse IgG F(ab')2, biotin-labeled human SIRPα-Fc in solution, OD(450-630); curve not visible in the scan
T7 construct: also called biotin-labeled human SIRPα-Fc protein
T7 sequence (chain, as listed by the source limits assumed): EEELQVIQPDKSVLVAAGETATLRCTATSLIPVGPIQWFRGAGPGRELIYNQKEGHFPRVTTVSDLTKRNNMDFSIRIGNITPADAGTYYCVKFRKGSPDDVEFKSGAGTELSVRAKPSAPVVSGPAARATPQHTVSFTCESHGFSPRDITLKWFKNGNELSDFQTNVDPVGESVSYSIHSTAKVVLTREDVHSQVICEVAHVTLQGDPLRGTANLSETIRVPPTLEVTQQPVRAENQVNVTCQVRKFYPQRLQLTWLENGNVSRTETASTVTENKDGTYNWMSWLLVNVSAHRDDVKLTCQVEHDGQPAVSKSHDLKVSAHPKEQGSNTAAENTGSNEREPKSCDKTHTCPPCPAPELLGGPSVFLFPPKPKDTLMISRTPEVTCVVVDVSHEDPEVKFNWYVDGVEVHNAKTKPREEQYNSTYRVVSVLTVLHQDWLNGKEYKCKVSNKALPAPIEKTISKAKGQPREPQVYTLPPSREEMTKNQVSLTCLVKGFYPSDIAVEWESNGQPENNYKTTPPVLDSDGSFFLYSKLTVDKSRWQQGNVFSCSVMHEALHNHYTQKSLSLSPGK

[21] = molecular target: T1, full length human SIRPα on cell …; experiment: cell based blocking FACS on 293F-SIRPα cells; blocked ligand: biotin-labeled human CD47-Fc, MFI

human SIRPα-isoform 2-his protein (human), sequence (chain, as listed by the source limits assumed): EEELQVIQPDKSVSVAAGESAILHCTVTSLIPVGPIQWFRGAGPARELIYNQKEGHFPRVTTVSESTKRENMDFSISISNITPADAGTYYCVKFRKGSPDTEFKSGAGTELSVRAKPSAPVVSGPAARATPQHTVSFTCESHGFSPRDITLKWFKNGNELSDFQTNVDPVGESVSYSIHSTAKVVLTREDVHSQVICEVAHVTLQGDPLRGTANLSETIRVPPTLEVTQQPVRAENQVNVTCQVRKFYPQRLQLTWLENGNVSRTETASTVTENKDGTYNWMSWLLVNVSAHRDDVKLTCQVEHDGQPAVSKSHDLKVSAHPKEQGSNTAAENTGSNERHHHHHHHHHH

EC50 [1]: ~4000 nM
EC50 [2]: 0.545 nM
EC50 [3]: 0.509 nM
Kd (human SIRPα-his protein [4]): 26.7 nM
koff (human SIRPα-his protein [4]): 0.00775 s⁻¹
kon (human SIRPα-his protein [4]): 290000 M⁻¹ s⁻¹
EC50 [5]: 0.633 nM
EC50 [6]: 0.585 nM
IC50 [7]: 1.83 nM
IC50 (human SIRPα-his protein [8]): 3.92 nM
EC50 [9]: 12.2 nM
IC50 [10]: 1.9 nM
IC50 [11]: 0.361 nM
EC50 [12]: ~7840 nM
EC50 [13]: 0.482 nM
EC50 [14]: ~16.6 nM
EC50 [15]: ~11 nM
EC50 [16]: 15.2 nM
EC50 [17]: 0.46 nM
EC50 [18]: ~167 nM
IC50 [19]: 0.386 nM
Kd (human SIRPβ-his protein): 30.5 nM
koff (human SIRPβ-his protein): 0.00928 s⁻¹
kon (human SIRPβ-his protein): 304000 M⁻¹ s⁻¹
EC50 [20]: 0.249 nM
IC50 [21]: 0.338 nM
B1: BI-765063 (antibody, human IgG4 S228P, kappa, V domains shown)
VH: EVQLVQSGAEVKKPGESLRISCKASGYSFTSYWVHWVRQMPGKGLEWMGNIDPSDSDTHYSPSFQGHVTLSVDKSISTAYLQLSSLKASDTAMYYCVRGGTGTLAYFAYWGQGTLVTVSS
VL: DVVMTQSPLSLPVTLGQPASISCRSSQSLVHSYGNTYLYWFQQRPGQSPRLLIYRVSNRFSGVPDRFSGSGSGTDFTLKISRVEAEDVGVYYCFQGTHVPYTFGGGTKVEIKR
notes: also called BM5
